The test system of one series is S. sanguinis. The series is described as follows: Release of antibiotics from self-assembling peptide gels: impact on bacterial growth (turbidity OD600). The series is classed as cell-based. Particulars: antibiotic 150 mg/ml released from self-assembling peptide gels (15 mg/ml), aerobic, OD600 normalized to gel without antibiotic, over 120 hours. The procedure: (§1) The following figures and examples are supposed to illustrate and further explain, but not to limit the invention. Any references cited herein are herewith fully incorporated. • Fig. 1: Bacterial density after release of antibiotics (150 mg/ml) from self-assembling peptide gels (15 mg/ml), and the impact thereof to the growth of P. gingivalis (A-C) and S. sanguinis (D-F). Circles: metronidazol, stars: tetracycline, triangle: ciprofloxacin, squares: doxycycline hyclate; control: gel without API A/D P11-4 gel. B/E P11-13/14 gel. C/F P11-28/29 gel • Fig. 2: Cross section of demineralized tooth after incubation with polymeric P11-4. […] 100µl peptide / well, c= 20 mg/ml, in PBS, quantified with Qubit R Protein Assay Ref: Q33211. […] 100 µl peptide / well, c= 20 mg/ml, in PBS, quantified with Qubit R Protein Assay Ref: Q33211. […] Since NO3- are monovalent ions, and ionic strength of the solution was below 130 mM, P11-8 self-assembling was slowed down. […] The cell/SAP-gel/ dentin was then incubated for 8 days and visually assessed resulting in migration of up to 5 mm. […]
(§2) Furthermore 100 uL/well of a defined anaerobic P. gingivalis or aerobic S. anguines bacterial culture ([…] e.g. 990 µl BHI medium, 10 µl 10^8 CFU/ml bacteria suspension) were added onto the gels. Impact on growth was assessed by measuring turbidity at OD600 nm. […]

Another series has as its system P. gingivalis. The description is as above. Format: cell-based. Particulars: antibiotic 150 mg/ml released from self-assembling peptide gels (15 mg/ml), anaerobic, OD600 normalized to gel without antibiotic, over 120 hours. On the procedure: as §1, §2
The nature of series [1]: Mechanical properties (storage modulus G') of gels in different ion and buffer systems. Format: physicochemical. The settings on record: compared with Tris-NaCl. The procedure: (§3) The following figures and examples are supposed to illustrate and further explain, but not to limit the invention. Any references cited herein are herewith fully incorporated. • Fig. 1: Bacterial density after release of antibiotics (150 mg/ml) from self-assembling peptide gels (15 mg/ml), and the impact thereof to the growth of P. gingivalis (A-C) and S. sanguinis (D-F). Circles: metronidazol, stars: tetracycline, triangle: ciprofloxacin, squares: doxycycline hyclate; control: gel without API A/D P11-4 gel. B/E P11-13/14 gel. C/F P11-28/29 gel • Fig. 2: Cross section of demineralized tooth after incubation with polymeric P11-4. […] 100µl peptide / well, c= 20 mg/ml, in PBS, quantified with Qubit R Protein Assay Ref: Q33211. […] 100 µl peptide / well, c= 20 mg/ml, in PBS, quantified with Qubit R Protein Assay Ref: Q33211. […] Since NO3- are monovalent ions, and ionic strength of the solution was below 130 mM, P11-8 self-assembling was slowed down. On the other hand self-assembling kinetic of P11-8 with DMEM and NaCl solution is very similar. […] Human Periodontal Ligament cells were placed in a cell pool (A) and the SAP gel (C) placed on the human dentin (B). The cell/SAP-gel/ dentin was then incubated for 8 days and visually assessed resulting in migration of up to 5 mm. Scale bar: 1 mm

Series [2] can be described thus: Stability of P11 peptide gels in absence of cells or bacteria (peptide release into supernatant, Qubit Protein Assay). Format: physicochemical. More on the design: unit not given here. Particulars: 7 days, 100µl peptide / well, c= 20 mg/ml, in PBS. On the procedure:
as §3

The next series has as its system bacteria. The series is described as follows: Degradation of P11-4 peptide gel in presence of bacteria (Qubit Protein Assay). Format: physicochemical. Particulars: 100 µl peptide / well, c= 20 mg/ml, in PBS. On the procedure: as §3
In series [3] the test system is Human Periodontal Ligament cells. Nature of the series: Cell migration on a periodontal ligament model (cell pool / SAP gel / human dentin). The series is classed as cell-based. The settings on record: 15 mg/ml gel on human dentin, 8 days of incubation, visually assessed. On the procedure:
as §3

Take `Cc1ncc([N+](=O)[O-])n1CCO` [metronidazole]: the “inhibition of bacterial growth (relative bacterial density)” value in the series with S. sanguinis and with P. gingivalis was “low effectivity in most systems at this concentration” each time.

Take “QQRFEWEFEQQ [P11-4, self-assembling peptide]”: the “storage modulus G'” value is “lower storage modulus” in series [1] (gel formed in DMEM (pH 7.4, ionic strength 130 mM)); “storage moduli between G'(NaCl and MgSO^4) was reached” in series [1] (gel formed in artificial saliva (Tris 120 mM, Ca(NO3) 4 mM, KH2PO4 2.4 mM, pH 7.2), DMEM, Tris MgSO4). Moreover, the “release of peptide into the supernatant” value in series [2] is listed as “less than one”. Also, the “stability (time the peptide is stable)” value in the series with bacteria is “more than 3 days”. Besides, in series [3], the migration result is on record as “up to 5 mm”.

The values above are taken from EP3284477A1, “COMPOSITION COMPRISING SELF-ASSEMBLING PEPTIDES FOR USE IN TREATMENT OF GINGIVITIS, PERIODONTITIS AND/OR PERI-IMPLANTITIS” (Credentis AG, priority 2016, dated 2018).
